From publication PMC8679000, “Biochemical Characterizations of Human TMPK Mutations Identified in Patients with Severe Microcephaly: Single Amino Acid Substitutions Impair Dimerization and Abolish Their Catalytic Activity” (ACS Omega, 2021)

Biological target: the molecule itself
Assay: SEC; Superdex G200; 10 mM Tris/HCl pH 7.6, 100 mM NaCl, 5 mM MgCl2, 5 mM DTT; 200 ug protein injected, 0.4 mL/min; 0.4 mL fractions analysed by TMPK activity and Western blot; size markers BSA, ovalbumin, cytochrome C

B1: wild-type human deoxythymidylate kinase (TMPK) (enzyme, UniProt P23919 1-212, looked up)
chain: MAARRGALIVLEGVDRAGKSTQSRKLVEALCAAGHRAELLRFPERSTEIGKLLSSYLQKKSDVEDHSVHLLFSANRWEQVPLIKEKLSQGVTLVVDRYAFSGVAFTGAKENFSLDWCKQPDVGLPKPDLVLFLQLQLADAAKRGAFGHERYENGAFQERALRCFHQLMKDTTLNWKMVDASKSIEAVHEDIRVLSEDAIRTATEKPLGELWK
notes: The pET-14b vector with N-terminal 6xHis tag is stated for the mutants only; the WT was 'run in parallel'; also called WT TMPK; WT; not shown: His6 (inferred from the mutants' construct)
  stoichiometry N: 2
